Reference: publication PMC11705898

What was measured:
[1] = target: S. aureus PitR with amino terminal histidine tag (pETphoU2_6xHN) (S. aureus Mu50); test: SEC; HiPrep 16/60 Sephacryl S-200 HR, 50 mM NaPO4, 150 mM NaCl pH 7.0, 0.5 mL/min; elution volume compared with volumes calculated from protein standards; loaded immediately after Ni purification
[2] = target: S. aureus PhoU with amino terminal histidine tag (pETphoU1_6xHN) (S. aureus Mu50); test: as above

stoichiometry N [1] | stoichiometry N [2] | Substance
2 |  | S. aureus PitR with amino terminal histidine tag (pETphoU2_6xHN) (natural protein)
 | 2 | S. aureus PhoU with amino terminal histidine tag (pETphoU1_6xHN) (natural protein)
